± gives the standard deviation of the averaged measurements.
Test: total protein half-life in vivo (active degradation + dilution); higher = more stable protein
[1] = E. coli NCM3722 delta-clpP delta-lon delta-hslV, growth: N-lim chemostat, doubling time 6 h
[2] = E. coli NCM3722 delta-clpP, growth: N-lim chemostat, doubling time 6 h
[3] = E. coli NCM3722 delta-smpB, growth: N-lim chemostat, doubling time 6 h
[4] = wild type E. coli NCM3722, growth: C-lim chemostat, doubling time 3 h
[5] = wild type E. coli NCM3722, growth: C-lim chemostat, doubling time 6 h
[6] = wild type E. coli NCM3722, growth: C-lim chemostat, doubling time 12 h
[7] = wild type E. coli NCM3722, growth: N-lim chemostat, doubling time 6 h
[8] = wild type E. coli NCM3722, growth: N-lim chemostat, doubling time 12 h
[9] = wild type E. coli NCM3722, growth: P-lim chemostat, doubling time 6 h
[10] = wild type E. coli NCM3722, growth: P-lim chemostat, doubling time 12 h
[11] = E. coli NCM3722 delta-hslV, growth: N-lim chemostat, doubling time 6 h
[12] = E. coli NCM3722 delta-lon, growth: N-lim chemostat, doubling time 6 h

P0AFC7, sequence (chain, as listed by the source): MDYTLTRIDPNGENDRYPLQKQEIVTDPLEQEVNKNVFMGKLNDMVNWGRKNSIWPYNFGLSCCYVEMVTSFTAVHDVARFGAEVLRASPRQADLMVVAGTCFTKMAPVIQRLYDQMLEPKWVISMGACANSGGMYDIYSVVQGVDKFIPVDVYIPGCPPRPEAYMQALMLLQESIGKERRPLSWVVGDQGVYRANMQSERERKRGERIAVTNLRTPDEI

Substance	total protein half-life in vivo [1] [h]	total protein half-life in vivo [2] [h]	total protein half-life in vivo [3] [h]	total protein half-life in vivo [4] [h]	total protein half-life in vivo [5] [h]	total protein half-life in vivo [6] [h]	total protein half-life in vivo [7] [h]	total protein half-life in vivo [8] [h]	total protein half-life in vivo [9] [h]	total protein half-life in vivo [10] [h]	total protein half-life in vivo [11] [h]	total protein half-life in vivo [12] [h]
MVTLYGIKNCDTIKKARRWLEANNIDYRFHDYRVDGLDSELLNDFINELGWEALLNTRGTTWRKLDETTRNKITDAASAAALMTEMPAIIKRPLLCVPGKPMLLGFSDSSYQQFFHEV	5.94 ± 0.23	5.95 ± 0.25	5.87 ± 1.3	3.07 ± 0.16	6.1 ± 0.65	9.79 ± 1.3	> 8	8.47	6.07	11.3 ± 0.18	–	–
MVWLANPERYGQMQYRYCGKSGLRLPALSLGLWHNFGHVNALESQRAILRKAFDLGITHFDLANNYGPPPGSAEENFGRLLREDFAAYRDELIISTKAGYDMWPGPYGSGGSRKYLLASLDQSLKRMGLEYVDIFYSHRVDENTPMEETASALAHAVQSGKALYVGISSYSPERTQKMVELLREWKIPLLIHQPSYNLLNRWVDKSGLLDTLQNNGVGCIAFTPLAQGLLTGKYLNGIPQDSRMHREGNKVRGLTPKMLTEANLNSLRLLNEMAQQRGQSMAQMALSWLLKDDRVTSVLIGASRAEQLEENVQALNNLTFSTKELAQIDQHIADGELNLWQASSDK	5.44 ± 0.59	5.3 ± 0.24	4.18 ± 0.68	3.2 ± 0.16	6.28 ± 0.24	11.4 ± 1.3	5.12 ± 0.82	8.176 ± 0.024	6.24 ± 0.32	12.4 ± 1.1	4.93 ± 0.43	5.69 ± 0.77
MYAAKGTQAYAQIGVESAVMSASQQQLVTMLFDGVLSALVRASLFMQDNNQQGKGVSLSKAINIIENGLRVSLDEESKDELTQNLIALYSYMVRRLLQANLRNDVSAVEEVEALMRNIADAWKESLLSPSLIQDPV	–	–	–	0.207 ± 0.029	–	–	–	–	–	–	–	–
MYDFNLVLLLLQQMCVFLVIAWLMSKTPLFIPLMQVTVRLPHKFLCYIVFSIFCIMGTWFGLHIDDSIANTRAIGAVMGGLLGGPVVGGLVGLTGGLHRYSMGGMTALSCMISTIVEGLLGGLVHSILIRRGRTDKVFNPITAGAVTFVAEMVQMLIILAIARPYEDAVRLVSNIAAPMMVTNTVGAALFMRILLDKRAMFEKYTSAFSATALKVAASTEGILRQGFNEVNSMKVAQVLYQELDIGAVAITDREKLLAFTGIGDDHHLPGKPISSTYTLKAIETGEVVYADGNEVPYRCSLHPQCKLGSTLVIPLRGENQRVMGTIKLYEAKNRLFSSINRTLGEGIAQLLSAQILAGQYERQKAMLTQSEIKLLHAQVNPHFLFNALNTIKAVIRRDSEQASQLVQYLSTFFRKNLKRPSEFVTLADEIEHVNAYLQIEKARFQSRLQVNIAIPQELSQQQLPAFTLQPIVENAIKHGTSQLLDTGRVAISARREGQHLMLEIEDNAGLYQPVTNASGLGMNLVDKRLRERFGDDYGISVACEPDSYTRITLRLPWRDEA [P0AD14]	–	–	–	2.82 ± 0.28	5.37 ± 0.45	10.9 ± 0.79	–	–	6.05 ± 0.33	11.1 ± 1.1	–	–
MYDNLKSLGITNPEEIDRYSLRQEANNDILKIYFQKDKGEFFAKSVKFKYPRQRKTVVADGVGQGYKEVQEISPNLRYIIDELDQICQRDRSEVDLKRKILDDLRHLESVVTNKISEIEADLEKLTRK	–	4.32 ± 0.1	3.61 ± 0.31	3.26 ± 0.19	5.55 ± 0.13	8.4 ± 0.45	3.77 ± 0.094	6.16 ± 0.23	5.45 ± 1.6	12 ± 0.17	4.18 ± 0.52	4.82 ± 0.08
MYEALLVVFLIVAIGLVGLIMLQQGKGADMGASFGAGASATLFGSSGSGNFMTRMTALLATLFFIISLVLGNINSNKTNKGSEWENLSAPAKTEQTQPAAPAKPTSDIPN [P0AG99]	3.64 ± 0.31	3.46 ± 0.55	3.78 ± 0.13	2.33 ± 0.097	4.91 ± 1.3	6.22 ± 0.14	3.81 ± 0.04	4.95	3.41 ± 0.17	6.12 ± 0.75	3.996 ± 0.032	4.58 ± 0.069
MYEFDWSSIVPSLPYLLDGLVITLKITVTAVVIGILWGTMLAVMRLSSFAPVAWFAKAYVNVFRSIPLVMVLLWFYLIVPGFLQNVLGLSPKNDIRLISAMVAFSMFEAAYYSEIIRAGIQSISRGQSSAALALGMTHWQSMKLIILPQAFRAMVPLLLTQGIVLFQDTSLVYVLSLADFFRTASTIGERDGTQVEMILFAGFVYFVISLSASLLVSYLKRRTA [P0AER5]	7.04	5.18	5.15 ± 0.1	–	6.05 ± 0.51	12.6 ± 1.8	5.68 ± 0.1	9.5 ± 4.4	6.36 ± 0.33	11.4 ± 0.52	6.35	5.47
MYFLNDLNFSRRDAGFKARKDALDIASDYENISVVNIPLWGGVVQRIISSVKLSTFLCGLENKDVLIFNFPMAKPFWHILSFFHRLLKFRIVPLIHDIDELRGGGGSDSVRLATCDMVISHNPQMTKYLSKYMSQDKIKDIKIFDYLVSSDVEHRDVTDKQRGVIYAGNLSRHKCSFIYTEGCDFTLFGVNYENKDNPKYLGSFDAQSPEKINLPGMQFGLIWDGDSVETCSGAFGDYLKFNNPHKTSLYLSMELPVFIWDKAALADFIVDNRIGYAVGSIKEMQEIVDSMTIETYKQISENTKIISQKIRTGSYFRDVLEEVIDDLKTR	6.47	7.29	4.15 ± 0.31	–	–	–	–	–	–	–	–	5.02 ± 0.14
MYLRPDEVARVLEKVGFTVDVVTQKAYGYRRGENYVYVNREARMGRTALVIHPTLKERSSTLAEPASDIKTCDHYQQFPLYLAGERHEHYGIPHGFSSRVALERYLNGLFGEAS [P0AD53]	4.77 ± 0.34	1.5	0.698 ± 0.21	1.18 ± 0.14	1.81 ± 0.54	1.42	0.609 ± 0.47	1.14	1.03 ± 0.22	2.61	0.818	2.99 ± 0.41
MYQDLIRNELNEAAETLANFLKDDANIHAIQRAAVLLADSFKAGGKVLSCGNGGSHCDAMHFAEELTGRYRENRPGYPAIAISDVSHISCVGNDFGFNDIFSRYVEAVGREGDVLLGISTSGNSANVIKAIAAAREKGMKVITLTGKDGGKMAGTADIEIRVPHFGYADRIQEIHIKVIHILIQLIEKEMVK	4.5 ± 0.5	4.44 ± 0.26	4.26 ± 0.082	3.04 ± 0.14	5.89 ± 0.46	11 ± 0.45	4.37 ± 0.08	7.07 ± 0.52	5.73 ± 0.15	11.13 ± 0.11	4.63 ± 0.36	5.19 ± 0.35
MYRIGELAKMAEVTPDTIRYYEKQQMMEHEVRTEGGFRLYTESDLQRLKFIRHARQLGFSLESIRELLSIRIDPEHHTCQESKGIVQERLQEVEARIAELQSMQRSLQRLNDACCGTAHSSVYCSILEALEQGASGVKSGC [P0ACS5]	4.46 ± 0.81	–	0.555 ± 0.043	–	0.866	1	0.748 ± 0.26	–	–	–	–	2.16
MYTKIIGTGSYLPEQVRTNADLEKMVDTSDEWIVTRTGIRERHIAAPNETVSTMGFEAATRAIEMAGIEKDQIGLIVVATTSATHAFPSAACQIQSMLGIKGCPAFDVAAACAGFTYALSVADQYVKSGAVKYALVVGSDVLARTCDPTDRGTIIIFGDGAGAAVLAASEEPGIISTHLHADGSYGELLTLPNADRVNPENSIHLTMAGNEVFKVAVTELAHIVDETLAANNLDRSQLDWLVPHQANLRIISATAKKLGMSMDNVVVTLDRHGNTSAASVPCALDEAVRDGRIKPGQLVLLEAFGGGFTWGSALVRF [P0A6R0]	5.01 ± 0.12	4.93 ± 0.2	4.564 ± 0.018	2.89 ± 0.036	5.36 ± 0.51	9.94 ± 0.71	4.91 ± 0.27	9.3 ± 1	5.907 ± 0.0094	12.9 ± 1.5	4.91 ± 0.11	5.578 ± 0.021
MYTQTLYELSQEAERLLQLSRQQLQLLEKMPLSVPGDDAPQLALPWSQPNIAERHAMLNNELRKISRLEMVLAIVGTMKAGKSTTINAIVGTEVLPNRNRPMTALPTLIRHTPGQKEPVLHFSHVAPIDCLIQQLQQRLRDCDIKHLTDVLEIDKDMRALMQRIENGVAFEKYYLGAQPIFHCLKSLNDLVRLAKALDVDFPFSAYAAIEHIPVIEVEFVHLAGLESYPGQLTLLDTPGPNEAGQPHLQKMLNQQLARASAVLAVLDYTQLKSISDEEVREAILAVGQSVPLYVLVNKFDQQDRNSDDADQVRALISGTLMKGCITPQQIFPVSSMWGYLANRARYELANNGKLPPPEQQRWVEDFAHAALGRRWRHADLADLEHIRHAADQLWEDSLFAQPIQALLHAAYANASLYALRSAAHKLLNYAQQAREYLDFRAHGLNVACEQLRQNIHQIEESLQLLQLNQAQVSGEIKHEIELALTSANHFLRQQQDALKVQLAALFQDDSEPLSEIRTRCETLLQTAQNTISRDFTLRFAELESTLCRVLTDVIRPIEQQVKMELSESGFRPGFHFPVFHGVVPHFNTRQLFSEVISRQEATDEQSTRLGVVRETFSRWLNQPDWGRGNEKSPTETVDYSVLQRALSAEVDLYCQQMAKVLAEQVDESVTAGMNTFFAEFASCLTELQTRLRESLALRQQNESVVRLMQQQLQQTVMTHGWIYTDAQLLRDDIQTLFTAERY [P0DM85]	–	–	–	2.44 ± 0.21	–	5.52 ± 1.4	–	–	3.43 ± 0.63	6.3 ± 0.69	–	–
MYTSGYAHRSSSFSSAASKIARVSTENTTAGLISEVVYREDQPMMTQLLLLPLLQQLGQQSRWQLWLTPQQKLSREWVQASGLPLTKVMQISQLSPCHTVESMVRALRTGNYSVVIGWLADDLTEEEHAELVDAANEGNAMGFIMRPVSASSHATRQLSGLKIHSNLYH [P0AFZ5]	5.07 ± 0.91	–	–	–	–	–	–	–	–	–	–	0.671 ± 0.059
P0AAG3	6.26 ± 0.74	6.4 ± 1.1	5.56 ± 0.4	3.02 ± 0.25	6.06 ± 0.07	11.3 ± 0.26	5.82 ± 0.16	11.6 ± 0.28	5.56 ± 0.15	11.4 ± 1.6	6.83 ± 1.4	6.053 ± 0.0072
P0ADE2	1.56	–	–	–	0.174	–	–	–	0.104	0.888 ± 0.58	–	–
P0AFC7	6.19 ± 0.65	5.993 ± 0.019	5.87 ± 0.17	2.92 ± 0.093	5.98 ± 0.26	11.2 ± 1.5	6.54 ± 0.77	12.5 ± 0.86	5.59 ± 0.15	12.5 ± 0.61	6.34 ± 0.17	5.81 ± 1.1
P76347	6.25 ± 0.88	1.86	–	–	–	–	–	3.04	–	–	–	–
P76578	6.589 ± 0.03	–	6.09 ± 0.11	3.08 ± 0.13	6.17 ± 0.39	13.4 ± 0.82	6.17 ± 0.06	13.1 ± 0.32	6.16 ± 0.085	12.7 ± 0.14	6.54 ± 0.12	6.81 ± 0.67

From the supplement of paper PMC11246515
